Measurements reported in PMC6511732.
Values joined by “and” are separate entries in the source; they are usually repeats but may differ in a detail not shown here. Identical values can stand only once. Like-named read-outs stand apart in the source and are kept apart here. Each block holds one substance with its values, some of them ahead of it.

Columns and labels:
Experiment in all cases: native MS
[1] = molecular target: Phycocyanin α6β6γ complex
[2] = molecular target: Phycocyanin α6β6 complex
[3] = molecular target: R-phycoerythrin α6β6γ complex
[4] = molecular target: Phycocyanin αβ-heterodimer
[5] = molecular target: Phycocyanin αβ-heterodimer; remark: listed apart in the source

stoichiometry N [1]: 2
Substance: Phycocyanin α6β6γ complex

stoichiometry N [2]: 2
Substance: Phycocyanin α6β6 complex

stoichiometry N [3]: 2
Substance: R-phycoerythrin α6β6γ complex

stoichiometry N [4]: 6
stoichiometry N [5]: 3 and 6
Substance: Phycocyanin αβ-heterodimer (complex)
